# Reference: article PMC8394291, “Identification of TSPAN4 as Novel Histamine H4 Receptor Interactor” (Biomolecules, 2021)
# Biological target: T1, H4R-Nluc (human, UniProt Q9H3N8-1 1-390)
# T1 construct: histamine H4 receptor (H4R), human; Nluc fused in frame to the intracellular C-terminal tail; also called H4R-Nluc/pcDEF3; human H4R-Nluc fusion; source: HEK293T, transiently transfected, in living cells; not shown: NanoLuc (Nluc), C-terminal, kept
# Assay: FRET or BRET; saturation BRET in living HEK293T cells; constant H4R-Nluc donor (12.5 ng) with 0-500 ng mVenus-tagged TSPAN4 acceptor plasmid; HBSS, 37 °C; vehicle or 10 µM histamine; one site-specific binding fit
# Details: partners not purified
BRET50 (vehicle),BRET50 (with 10 µM histamine),Binder
0.45 mVenus/Nluc ratio,0.68 mVenus/Nluc ratio,"TSPAN4-mVenus (natural protein, human, UniProt O14817 1-238, looked up, tetraspanin 4 (TSPAN4), human; stop codon replaced by SpeI-NotI sites coding for a TSAAA linker, mVenus at the intracellular C-terminus; also called TSPAN4-mVenus/pcDEF3; source: HEK293T, transiently transfected, in living cells; not shown: mVenus (with TSAAA linker), C-terminal, kept) MARACLQAVKYLMFAFNLLFWLGGCGVLGVGIWLAATQGSFATLSSSFPSLSAANLLIITGAFVMAIGFVGCLGAIKENKCLLLTFFLLLLLVFLLEATIAILFFAYTDKIDRYAQQDLKKGLHLYGTQGNVGLTNAWSIIQTDFRCCGVSNYTDWFEVYNATRVPDSCCLEFSESCGLHAPGTWWKAPCYETVKVWLQENLLAVGIFGLCTALVQILGLTFAMTMYCQVVKADTYCA"
0.79 mVenus/Nluc ratio,0.92 mVenus/Nluc ratio,"mVenus-TSPAN4 (natural protein, human, UniProt O14817 2-238, looked up, tetraspanin 4 (TSPAN4), human; start codon replaced by SpeI-NotI sites coding for a TSAAA linker, mVenus at the intracellular N-terminus; also called mVenus-TSPAN4/pcDNA3.1; source: HEK293T, transiently transfected, in living cells (BRET) and in lysate (co-IP); not shown: mVenus (with TSAAA linker), N-terminal, kept) ARACLQAVKYLMFAFNLLFWLGGCGVLGVGIWLAATQGSFATLSSSFPSLSAANLLIITGAFVMAIGFVGCLGAIKENKCLLLTFFLLLLLVFLLEATIAILFFAYTDKIDRYAQQDLKKGLHLYGTQGNVGLTNAWSIIQTDFRCCGVSNYTDWFEVYNATRVPDSCCLEFSESCGLHAPGTWWKAPCYETVKVWLQENLLAVGIFGLCTALVQILGLTFAMTMYCQVVKADTYCA"
